Assay results published in patent US20260115305A1, “LINKERS, CONJUGATES AND APPLICATIONS THEREOF” (GENEQUANTUM HEALTHCARE (SUZHOU) CO., LTD., priority 2022, published 2026).

Experiments:
[1] = first-phase clinical trial; cited from earlier work
TROP2 [2] = target: T1, TROP2 (human, UniProt P09758 27-323); test: cell-based or functional assay
T1 sequence (looked up): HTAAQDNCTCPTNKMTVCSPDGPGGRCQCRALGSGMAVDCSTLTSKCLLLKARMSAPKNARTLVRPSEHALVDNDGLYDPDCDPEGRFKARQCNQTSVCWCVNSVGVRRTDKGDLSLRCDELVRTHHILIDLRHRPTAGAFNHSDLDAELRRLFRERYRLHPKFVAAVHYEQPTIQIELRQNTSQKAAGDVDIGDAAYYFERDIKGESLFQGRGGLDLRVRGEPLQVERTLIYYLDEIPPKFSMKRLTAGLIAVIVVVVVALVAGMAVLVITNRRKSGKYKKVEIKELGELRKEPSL

TROP2 [3] = target: T1, TROP2; test: cell-based or functional assay; remark: listed apart in the source

DS1062
patients with adverse events above Grade 3 [1]: 48%
patients with interstitial lung disease [1]: 8%

B1: ADC-5 (antibody, human IgG1, kappa, V domains shown)
VH: QVQLQQSGSELKKPGASVKVSCKASGYTFTNYGMNWVKQAPGQGLKWMGWINTYTGEPTYTDDFKGRFAFSLDTSVSTAYLQISSLKADDTAVYFCARGGFGSSYWYFDVWGQGSLVTVSS
VL: DIQLTQSPSSLSASVGDRVSITCKASQDVSIAVAWYQQKPGKAPKLLIYSASYRYTGVPDRFSGSGSGTDFTLTISSLQPEDFAVYYCQQHYITPLTFGAGTKVEIKR
modifications: Linker-Payload 1 joined by Sortase A ligation at the C-terminal GALPETGG tag of the light chain (resulting sequence LPXTGn with n = 3, then linker-payload); DAR value 3.5
IC50, inhibition of proliferation of TROP2-positive BxPC-3 cells (CellTiterGlo, 120 h) (TROP2 [2]): 0.249 nM
Endocytosis by TROP2-positive tumor cells: Half Life (TROP2 [3]): 45.6 min
Endocytosis by TROP2-positive tumor cells: Maximum endocytosis (MFI) (TROP2 [3]): 18600 MFI
Endocytosis by TROP2-positive tumor cells: Maximum endocytosis rate (%) (TROP2 [3]): 46%

B2: ADC-7 (antibody, human IgG1, kappa, V domains shown)
VH: QVQLQQSGSELKKPGASVKVSCKASGYTFTNYGMNWVKQAPGQGLKWMGWINTYTGEPTYTDDFKGRFAFSLDTSVSTAYLQISSLKADDTAVYFCARGGFGSSYWYFDVWGQGSLVTVSS
VL: DIQLTQSPSSLSASVGDRVSITCKASQDVSIAVAWYQQKPGKAPKLLIYSASYRYTGVPDRFSGSGSGTDFTLTISSLQPEDFAVYYCQQHYITPLTFGAGTKVEIKR
modifications: Linker-Payload 3 joined by Sortase A ligation at the C-terminal GALPETGG tag of the light chain; DAR value 3.6
IC50, inhibition of proliferation of TROP2-positive BxPC-3 cells (CellTiterGlo, 120 h) (TROP2 [2]): 0.602 nM

B3: Ab2 (antibody, human IgG1, kappa, V domains shown)
VH: QVQLQQSGSELKKPGASVKVSCKASGYTFTNYGMNWVKQAPGQGLKWMGWINTYTGEPTYTDDFKGRFAFSLDTSVSTAYLQISSLKADDTAVYFCARGGFGSSYWYFDVWGQGSLVTVSS
VL: DIQLTQSPSSLSASVGDRVSITCKASQDVSIAVAWYQQKPGKAPKLLIYSASYRYTGVPDRFSGSGSGTDFTLTISSLQPEDFAVYYCQQHYITPLTFGAGTKVEIKR
Endocytosis by TROP2-positive tumor cells: Half Life (TROP2 [3]): 48.2 min
Endocytosis by TROP2-positive tumor cells: Maximum endocytosis (MFI) (TROP2 [3]): 18500 MFI
Endocytosis by TROP2-positive tumor cells: Maximum endocytosis rate (%) (TROP2 [3]): 46%

B4: ADC-6 (antibody, human IgG1, kappa, V domains shown)
VH: QVQLQQSGSELKKPGASVKVSCKASGYTFTNYGMNWVKQAPGQGLKWMGWINTYTGEPTYTDDFKGRFAFSLDTSVSTAYLQISSLKADDTAVYFCARGGFGSSYWYFDVWGQGSLVTVSS
VL: DIQLTQSPSSLSASVGDRVSITCKASQDVSIAVAWYQQKPGKAPKLLIYSASYRYTGVPDRFSGSGSGTDFTLTISSLQPEDFAVYYCQQHYITPLTFGAGTKVEIKR
modifications: Linker-Payload 2 joined by Sortase A ligation at the C-terminal GALPETGG tag of the light chain; DAR value 3.6
IC50, inhibition of proliferation of TROP2-positive BxPC-3 cells (CellTiterGlo, 120 h) (TROP2 [2]): 0.254 nM
Endocytosis by TROP2-positive tumor cells: Half Life (TROP2 [3]): 42.8 min
Endocytosis by TROP2-positive tumor cells: Maximum endocytosis (MFI) (TROP2 [3]): 18200 MFI
Endocytosis by TROP2-positive tumor cells: Maximum endocytosis rate (%) (TROP2 [3]): 45%
